Laboratory results taken from PMC11283359 (Molecular cell, 2024).

T1: 3XFLAG-MED26 (knock-in) (mouse (endogenous in CH12), UniProt Q7TN02 1-588)
T1 sequence (looked up): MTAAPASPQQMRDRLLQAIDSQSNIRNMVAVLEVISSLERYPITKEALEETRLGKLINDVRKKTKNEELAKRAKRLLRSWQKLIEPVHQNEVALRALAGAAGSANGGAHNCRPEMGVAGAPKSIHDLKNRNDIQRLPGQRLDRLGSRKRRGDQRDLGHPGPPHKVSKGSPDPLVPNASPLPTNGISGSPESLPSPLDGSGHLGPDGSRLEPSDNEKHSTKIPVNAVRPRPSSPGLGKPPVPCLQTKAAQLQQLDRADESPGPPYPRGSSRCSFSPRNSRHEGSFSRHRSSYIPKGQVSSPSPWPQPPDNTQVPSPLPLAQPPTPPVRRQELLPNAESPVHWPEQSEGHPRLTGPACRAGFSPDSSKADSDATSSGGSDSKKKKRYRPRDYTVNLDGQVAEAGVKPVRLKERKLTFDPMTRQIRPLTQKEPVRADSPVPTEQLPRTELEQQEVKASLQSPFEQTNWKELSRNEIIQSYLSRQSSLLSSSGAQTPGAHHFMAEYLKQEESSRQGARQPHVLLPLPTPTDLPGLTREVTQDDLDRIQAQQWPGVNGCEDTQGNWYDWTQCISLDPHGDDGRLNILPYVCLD

B1: MED31 (endogenous) (natural protein, mouse (endogenous in CH12), UniProt Q9CXU1 1-131, looked up)
chain: MAAAVAMETDDAGNRLRFQLELEFVQCLANPNYLNFLAQRGYFKDKAFVNYLKYLLYWKEPEYAKYLKYPQCLHMLELLQYEHFRKELVNAQCAKFIDEQQILHWQHYSRKRVRLQQALAEQQQQNNTAGK
B2: MED21 (natural protein, mouse (endogenous in CH12), UniProt Q9CQ39 1-144, looked up)
chain: MADRLTQLQDAVNSLADQFCNAIGVLQQCGPPASFSNIQTAINKDQPANPTEEYAQLFAALIARTAKDIDVLIDSLPSEESTAALQAASLYKLEEENHEAATCLEDVVYRGDMLLEKIQSALADIAQSQLKTRSVTHSHSLPDS
B3: MED7 (natural protein, mouse (endogenous in CH12), UniProt Q9CZB6 1-233, looked up)
chain: MGEPQQVSALPPPPMQYIKEYTDENIQEGLAPKPPPPIKDSYMMFGNQFQCDDLIIRPLESQGIERLHPMQFDHKKELRKLNMSILINFLDLLDILIRSPGSIKREEKLEDLKLLFVHVHHLINEYRPHQARETLRVMMEVQKRQRLETAERFQKHLERVIEMIQNCLASLPDDLPHSEAGMRVKAEPMDTDDNSNCPGQNEQQRESSGHRRDQIIEKDAALCVLIDEMNERP

The binders below were run against T1, 3XFLAG-MED26 (knock-in) (assay: cryo-EM structure).

Binding result, binds:
B1, B2, B3
